Data taken from publication PMC4554727, “Flexible Structure of Peptide-Bound Filamin A Mechanosensor Domain Pair 20–21” (PLoS ONE, 2015).

Key:
[1] = biological target: T1, IgFLNaΔA20–21 (filamin A domains 20–21 lacking the first β strand of domain 20, residues 2151–2329) (Homo sapiens (Human), UniProt P21333); assay: NMR HSQC titration, crystal structure
T1 chain: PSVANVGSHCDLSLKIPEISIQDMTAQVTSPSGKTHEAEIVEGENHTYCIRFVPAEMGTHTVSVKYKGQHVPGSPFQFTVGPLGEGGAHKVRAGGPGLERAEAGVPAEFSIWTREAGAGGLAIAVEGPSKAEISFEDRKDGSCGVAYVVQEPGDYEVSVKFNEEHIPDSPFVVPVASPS

[2] = biological target: T2, IgFLNaΔA20–21 (filamin A domains 20–21 lacking the first β strand of domain 20, residues 2151–2329) (UniProt P21333 2151-2329); assay: SAXS; 277 K; 20 mM Tris pH 8.0, 100 mM NaCl, 10 mM DTT; 1–4 mg/ml IgFLNa20–21 or IgFLNa∆A20–21; two times molar excess of migfilin peptide where added; details: both partners purified
T2 construct: filamin A (FLNa), Ig-like domains 20–21 without the A strand of domain 20 (2141–2150), residues 2151–2329; residues 2151–2235 form domain ΔA20 and 2236–2329 domain 21; 15N (and 13C) isotope-labelled for the NMR experiments; same construct; also called IgFLNa∆A20–21; IgFLNΔAa20–21; source: E. coli BL21, purified (Glutathione Sepharose, TEV cleavage, size-exclusion chromatography)
T2 sequence (looked up): T1 chain

[3] = biological target: T3, IgFLNa20–21 (filamin A immunoglobulin-like domains 20–21, residues 2141–2329) (UniProt P21333 2141-2329); assay: as above; details: both partners purified
T3 construct: Cloned into a modified pGEX vector; also called FLNa mechanosensor domain pair 20–21; source: E. coli BL21, purified (Glutathione Sepharose, TEV cleavage, size-exclusion chromatography)
T3 sequence (looked up): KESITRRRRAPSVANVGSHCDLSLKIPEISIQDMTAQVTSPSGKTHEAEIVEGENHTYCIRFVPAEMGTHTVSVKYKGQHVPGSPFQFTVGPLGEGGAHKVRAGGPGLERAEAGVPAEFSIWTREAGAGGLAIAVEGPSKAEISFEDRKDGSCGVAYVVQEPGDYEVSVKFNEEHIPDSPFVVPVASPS

[4] = biological target: T4, IgFLNa20–21 (filamin A immunoglobulin-like domains 20–21, residues 2141–2329) (Homo sapiens (Human), UniProt P21333); assay: SAXS
T4 chain: T3 sequence (looked up)

binding result [1]: binds
binding result [2]: binds
binding result [3]: binds
binding result [4]: binds
B1: migfilin peptide (residues 5–28) (peptide)
peptide: PEKRVASSVFITLAPPRRDVAVAE
notes: migfilin, residues 5–28; it is removed here; Only residues 6–20 are seen in the crystal structure; also called migfilin^5–28 peptide; migfilin-derived peptide; source: bought: EZBiolab (Westfield, IN)
